In patent US20210145973A1 (CITY OF HOPE, published 2021):
Where no end group is shown, it is not given here. phosphorothioated ssDNA 20mer = not defined here

Columns and labels:
STAT3 protein = target: T1, STAT3 protein (human, UniProt P40763 2-770); assay: immunoprecipitation of the FITC-labeled peptide, Western blotting, U251 cells (FIG. 20E, 20F)
T1 construct: Endogenous STAT3 of human cells (U251, HepG2) or of HCT116 xenograft tumor homogenates
Text: (§1) FIGS. 20A-20I: Conjugating phosphorothioated DNA oligonucleotides (PS) enables acetyl-STAT3 peptide cell penetration and specific interaction with STAT3 and exportin 7 proteins as well as downregulation of STAT3 activation. FIG. 20A. Phosphorothioated DNA oligonucleotide-modified STAT3 peptides efficiently penetrate human glioma cell line U251 and human colon cancer cell line HCT116, as assessed by flow cytometry. FIG. 20B. Cell penetration of the PS-acetyl-STAT3 peptide and its colocalization with STAT3 protein in U251 cells are shown by confocal microscopy. Scale, 50 μm. FIG. 20C and FIG. 20D. The PS acetyl-STAT3 peptide specifically binds to acetylated STAT3 protein and exportin 7, as assessed by ELISA, in which the plate is coated by an acetylated-STAT3 protein (containing amino acids 127-722), n=3. FIG. 20E and FIG. 20F. The specific interaction between acetyl-STAT3 peptide and STAT3/exportin 7 shown by immunoprecipitation of the FITC-labeled PS-acetyl-STAT3 peptide followed by Western blotting, shown in U251 cells. FIG. 20G. Downregulation of STAT3 phosphorylation, shown in HCT116 tumors by immunoprecipitation/Western blotting. FIG. 20H. […]
(§2) The PS acetyl-STAT3 peptide specifically binds to acetylated STAT3 protein and exportin 7, as assessed by ELISA, in which the plate is coated by an acetylated-STAT3 protein (containing amino acids 127-722), n=3 (FIG. 20C and FIG. 20D). […]

[1] = target: T2, acetylated-STAT3 protein (containing amino acids 127-722) (Homo sapiens (Human), UniProt P40763 127-722, acetylated (site not stated for this protein)); assay: ELISA, plate coated with acetylated-STAT3 protein (amino acids 127-722), n=3 (FIG. 20C, 20D)
T2 construct: Coated on the ELISA plate
Text: as §1, §2

T2 sequence (P40763 127-722): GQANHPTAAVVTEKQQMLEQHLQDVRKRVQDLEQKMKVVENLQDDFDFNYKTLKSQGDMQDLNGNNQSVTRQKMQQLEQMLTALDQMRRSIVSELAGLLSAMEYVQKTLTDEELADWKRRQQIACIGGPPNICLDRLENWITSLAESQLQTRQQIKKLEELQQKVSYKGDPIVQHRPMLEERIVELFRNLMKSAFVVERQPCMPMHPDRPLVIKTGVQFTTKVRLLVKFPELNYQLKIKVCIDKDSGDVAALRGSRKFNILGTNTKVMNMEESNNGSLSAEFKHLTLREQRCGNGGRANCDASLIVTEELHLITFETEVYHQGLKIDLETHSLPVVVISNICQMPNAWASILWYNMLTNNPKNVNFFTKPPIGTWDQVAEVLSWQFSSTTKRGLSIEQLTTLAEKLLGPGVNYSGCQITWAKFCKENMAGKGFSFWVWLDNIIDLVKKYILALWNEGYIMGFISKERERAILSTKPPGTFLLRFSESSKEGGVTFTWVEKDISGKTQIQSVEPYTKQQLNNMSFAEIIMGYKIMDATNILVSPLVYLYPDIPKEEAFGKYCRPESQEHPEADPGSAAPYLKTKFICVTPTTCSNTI
T1 sequence (P40763 2-770 limits assumed): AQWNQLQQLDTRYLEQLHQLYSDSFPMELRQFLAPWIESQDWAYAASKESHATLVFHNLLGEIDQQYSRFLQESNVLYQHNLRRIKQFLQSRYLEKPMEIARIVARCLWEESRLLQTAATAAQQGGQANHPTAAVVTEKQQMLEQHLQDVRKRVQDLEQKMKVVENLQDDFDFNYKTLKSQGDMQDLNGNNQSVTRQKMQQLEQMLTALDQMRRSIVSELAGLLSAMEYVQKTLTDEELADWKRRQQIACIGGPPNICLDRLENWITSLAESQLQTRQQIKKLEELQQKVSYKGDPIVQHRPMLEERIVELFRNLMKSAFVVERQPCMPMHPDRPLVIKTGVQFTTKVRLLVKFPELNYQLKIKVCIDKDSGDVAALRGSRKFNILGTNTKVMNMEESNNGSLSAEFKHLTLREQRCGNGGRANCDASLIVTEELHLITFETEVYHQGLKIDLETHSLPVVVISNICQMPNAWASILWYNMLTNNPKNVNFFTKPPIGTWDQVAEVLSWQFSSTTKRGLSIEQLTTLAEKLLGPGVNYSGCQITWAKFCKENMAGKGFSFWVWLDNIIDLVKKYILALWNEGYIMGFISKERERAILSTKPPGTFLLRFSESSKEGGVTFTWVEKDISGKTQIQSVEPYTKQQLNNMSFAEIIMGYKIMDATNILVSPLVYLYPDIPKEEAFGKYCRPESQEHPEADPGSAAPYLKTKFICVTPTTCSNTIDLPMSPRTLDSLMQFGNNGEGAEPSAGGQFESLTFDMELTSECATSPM

binding result (STAT3 protein): binds | binding result [1]: binds
B1: PS-acetyl-STAT3 peptide (STAT3-acet.K685 peptide elongated at its C-terminus with a phosphorothioated ssDNA 20mer, FITC-labeled) (peptide)
peptide: PDIPKEEAFGK(Ac)YCRPESQEHPC-{hydrazide linker with FITC (Fam dT)-phosphorothioated ssDNA 20mer}
modifications: cysteine pairing not given here; reading uncertain
notes: Peptide-oligonucleotide conjugate; only the peptide part is a polypeptide; The FITC in the linker was used as the tag for precipitation
